Measured values taken from US20030199423A1.
Each block holds one substance with its values, some of them ahead of it.

Legend:
[1] = biological target: LFA-1 (CD18/CD11a) (human) (UniProt P20701); assay: inhibition of neutrophil adhesion to coated ICAM-R/Ig, antibody 15 µg/ml
[2] = biological target: LFA-1 (CD18/CD11a) (human) (UniProt P20701); assay: inhibition of SKW3 cell adhesion to coated soluble ICAM-R, peptide 1-2 mg/ml
[3] = biological target: LFA-1 (CD18/CD11a) (human) (UniProt P20701); assay: inhibition of CD18-dependent adhesion of PMA-treated JY cells to coated shICAM-R, antibody 10 µg/ml; defines total CD18-dependent binding

Sequence of LFA-1 (CD18/CD11a) (human) (P20701 26-1170, chain 1 of 2): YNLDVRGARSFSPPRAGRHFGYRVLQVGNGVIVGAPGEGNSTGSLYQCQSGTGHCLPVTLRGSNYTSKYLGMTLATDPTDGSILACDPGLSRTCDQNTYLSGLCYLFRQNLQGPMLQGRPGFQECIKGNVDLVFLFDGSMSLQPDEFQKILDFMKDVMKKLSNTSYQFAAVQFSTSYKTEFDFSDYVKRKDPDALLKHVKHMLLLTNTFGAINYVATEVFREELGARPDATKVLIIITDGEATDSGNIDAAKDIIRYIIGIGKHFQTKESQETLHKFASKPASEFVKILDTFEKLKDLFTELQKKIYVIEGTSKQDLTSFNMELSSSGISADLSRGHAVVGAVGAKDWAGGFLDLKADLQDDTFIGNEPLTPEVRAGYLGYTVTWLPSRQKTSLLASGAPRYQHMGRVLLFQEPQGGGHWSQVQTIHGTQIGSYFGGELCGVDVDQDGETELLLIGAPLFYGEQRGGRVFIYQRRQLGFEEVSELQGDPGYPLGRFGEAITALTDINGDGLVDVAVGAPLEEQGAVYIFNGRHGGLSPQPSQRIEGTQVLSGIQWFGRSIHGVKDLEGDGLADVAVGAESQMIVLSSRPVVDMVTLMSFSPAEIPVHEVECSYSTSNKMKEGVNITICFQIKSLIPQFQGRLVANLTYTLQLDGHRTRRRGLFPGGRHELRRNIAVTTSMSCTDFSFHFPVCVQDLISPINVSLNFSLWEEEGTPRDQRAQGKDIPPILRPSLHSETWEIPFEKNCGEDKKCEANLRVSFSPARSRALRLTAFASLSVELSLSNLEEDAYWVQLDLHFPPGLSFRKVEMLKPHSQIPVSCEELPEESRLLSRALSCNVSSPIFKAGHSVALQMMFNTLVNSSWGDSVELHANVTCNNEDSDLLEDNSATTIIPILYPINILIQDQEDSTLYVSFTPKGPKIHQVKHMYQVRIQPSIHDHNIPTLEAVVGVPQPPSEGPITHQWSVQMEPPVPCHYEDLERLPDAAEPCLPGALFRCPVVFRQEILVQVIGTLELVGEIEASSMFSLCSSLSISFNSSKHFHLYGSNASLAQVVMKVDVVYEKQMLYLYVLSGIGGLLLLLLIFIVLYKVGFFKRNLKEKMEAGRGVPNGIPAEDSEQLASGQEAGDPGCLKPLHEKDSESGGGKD
Sequence of LFA-1 (CD18/CD11a) (human) (P05107 23-769, chain 2 of 2, further chain): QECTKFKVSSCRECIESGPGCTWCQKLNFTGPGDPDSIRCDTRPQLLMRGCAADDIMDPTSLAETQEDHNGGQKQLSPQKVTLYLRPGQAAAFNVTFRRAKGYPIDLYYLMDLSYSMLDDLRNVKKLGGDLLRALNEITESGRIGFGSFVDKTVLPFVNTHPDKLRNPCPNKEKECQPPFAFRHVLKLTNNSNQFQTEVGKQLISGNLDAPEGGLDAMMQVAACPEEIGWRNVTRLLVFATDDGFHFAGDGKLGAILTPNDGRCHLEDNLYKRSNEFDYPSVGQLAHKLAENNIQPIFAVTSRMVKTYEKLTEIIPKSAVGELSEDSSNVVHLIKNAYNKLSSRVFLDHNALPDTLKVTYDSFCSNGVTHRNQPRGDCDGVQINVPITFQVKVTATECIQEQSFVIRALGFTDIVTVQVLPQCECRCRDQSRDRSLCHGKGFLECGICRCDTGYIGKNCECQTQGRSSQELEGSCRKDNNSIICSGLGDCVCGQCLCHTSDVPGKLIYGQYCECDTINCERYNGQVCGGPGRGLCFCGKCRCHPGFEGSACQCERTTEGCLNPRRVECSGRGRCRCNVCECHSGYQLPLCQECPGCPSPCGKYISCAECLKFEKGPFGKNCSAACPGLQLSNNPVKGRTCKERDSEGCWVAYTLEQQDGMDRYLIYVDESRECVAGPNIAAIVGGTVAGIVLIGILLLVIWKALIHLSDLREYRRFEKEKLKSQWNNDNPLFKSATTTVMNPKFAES

percent inhibition of neutrophil binding to ICAM-R [1]: 50%
Substance: anti-CD11a monoclonal antibody TS1/22

% Inhibition [2]: 26%
Substance: ICAM-R domain 1 peptide (NGSQI), residues 72-76

Inhibition (%) [3]: 100%
Substance: anti-CD18 monoclonal antibody 60.3
